# B1: recombinant maize profilin (rZea m 12) E128D (protein)
# chain: GMSWQAYVDDHLLCDIEGQHLSAAAIVGHDGSVWAQSENFPELKPEEVAGMIKDFDEPGTLAPTGLFVGGTKYMVIQGEPGVVIRGKKGTGGITIKKTGMSLIIGIYDEPMTPGQCNMVVERLGDYLIDQGF
# Molecular target: murine monoclonal IgE antibody 2F5 (anti-profilin Hev b 8)
# Assay: ELISA
# Conditions: chain shown with the change; n = 4; parent: est. 0.26; read off a plot
binder,measurement,value
B1,response,0.4 Abs 405nm

# Source: PMC9334453
